Reference: patent US9206432B2, “Sulfonylurea-responsive repressor proteins” (priority 2008, dated 2015)
Like-named read-outs stand apart in the source and are kept apart here.

System: lacZ under control of the tetA promoter (PtetA) in E. coli KM3
Type: cell-based
Conditions: for relative β-galactosidase activity, inducer Ci: chlorimuron 20 ppm; for relative β-galactosidase activity, inducer Cs: chlorsulfuron 20 ppm; for relative β-galactosidase activity, inducer Ms: metsulfuron 20 ppm; for relative β-galactosidase activity, inducer Ns: nicosulfuron 20 ppm; for relative β-galactosidase activity, inducer Rs: rimsulfuron 20 ppm; for relative β-galactosidase activity, inducer Sm: sulfometuron 20 ppm; for relative β-galactosidase activity, inducer Ts: thifensulfuron 20 ppm; for relative β-galactosidase activity, inducer Tb: tribenuron 20 ppm; for inducer preference: Table 8, library L2 parents and hits; for activity on sulfonylurea inducers: first round hits, 20 ppm inducer (Table 4)
[1] = Table 4, ethametsulfuron 20 ppm, 48 hrs at 30° C.

Row | Molecule | relative β-galactosidase activity, inducer Ci (Table 4, 48 hrs at 30° C.) | relative β-galactosidase activity, inducer Cs (Table 4, 48 hrs at 30° C.) | relative β-galactosidase activity, inducer Es [1] | relative β-galactosidase activity, inducer Ms (Table 4, 48 hrs at 30° C.) | relative β-galactosidase activity, inducer Ns (Table 4, 48 hrs at 30° C.) | relative β-galactosidase activity, inducer Rs (Table 4, 48 hrs at 30° C.) | relative β-galactosidase activity, inducer Sm (Table 4, 48 hrs at 30° C.) | relative β-galactosidase activity, inducer Ts (Table 4, 48 hrs at 30° C.) | relative β-galactosidase activity, inducer Tb (Table 4, 48 hrs at 30° C.) | inducer preference | relative β-galactosidase activity, No inducer (Table 10, 48 hours at 30° C.) | activity on sulfonylurea inducers | relative β-galactosidase activity, inducer Es (Table 10, ethametsulfuron 2 ppm, 48 hours at 30° C.) | induction response and background (library L2 retest, inducers at 2 ppm)
1 | L1-24: SU-responsive TetR(B) variant, library L1 hit (protein, Sulfonylurea responsive repressor L1-24) MGSRLDKSKVINSALELLNEVGIEGLTTRKLAQKLGVEQPTLYWHVKNKRALLDALAIEMLDRHNTHFCPLEGESWQDFLRNSAKSMRCALLSHRDGAKVLLGTAVTEKQYETTENSLAFLCQQGFSLENALYAIRAVRTFTLGCVLVDQERQVAKEERETPTTDSMPPLLRQAKELLDHQGAEPAFLFGLELIICGLEKQLKCESGS | 22.1 | 3.3 | 0.2 | 0.4 | 0.3 | 0.3 | 3.1 | 0.3 | 1.6 | – | – | – | – | –
2 | L1-38: SU-responsive TetR(B) variant, library L1 hit (protein, Sulfonylurea responsive repressor L1-38) MGSRLDKSKVINSALELLNEVGIEGLTTRKLAQKLGVEQPTLYWHVKNKRALLDALAIEMADRHHTHFCPLEGESWQDFLRNNAKSMRCALLSHRDGAKVWLGTAWTEKQYETTENMLAFLCQQGFSLENALYAWRAVTMFTLGCVLRDQEWQVAKEERETPTTDSMPPLLRQALELGDHQGAEPAFLFGLELIICGLEKQLKCESGS | 15.3 | 14.0 | 14.8 | 14.7 | 8.7 | 9.5 | 18.3 | 16.7 | 15.8 | – | – | – | – | –
3 | L1-31: SU-responsive TetR(B) variant, library L1 hit (protein, Sulfonylurea responsive repressor L1-31) MGSRLDKSKVINSALELLNEVGIEGLTTRKLAQKLGVEQPTLYWHVKNKRALLDALAIEMLDRHATHFCPLEGESWQDFLRNNAKSMRCALLSHRDGAKVMLGTRATEKQYETVENRLAFLCQQGFSLENALYAVRAVHWFTLGCVLIDQEMQVAKEERETPTTDSMPPLLRQAYELYDHQGAEPAFLFGLELIICGLEKQLKCESGS | 1.1 | 1.4 | 13.7 | 0.5 | 0.5 | 0.4 | 0.9 | 0.9 | 0.1 | – | – | – | – | –
4 | L1-2: SU-responsive TetR(B) ligand binding domain variant, library L1 hit, SEQ ID NO: 3 (protein, Sulfonylurea responsive repressor L1-02) MGSRLDKSKVINSALELLNEVGIEGLTTRKLAQKLGVEQPTLYWHVKNKRALLDALAIEMLDRHATHFCPLEGESWQDFLRNNAKSFRCALLSHRDGAKVCLGTAVTEKQYETMENILAFLCQQGFSLENALYARRAVIAFTLGCVLWDQEYQVAKEERETPTTDSMPPLLRQARELIDHQGAEPAFLFGLELIICGLEKQLKCESGS | 13.6 | 4.1 | 5.8 | 1.9 | 1.3 | 1.3 | 4.7 | 1.6 | 1.7 | – | – | – | – | –
5 | L1-22: SU-responsive TetR(B) variant, library L1 hit, SEQ ID NO: 7 (protein, Sulfornylurea responsive repressor L1-22) MGSRLDKSKVINSALELLNEVGIEGLTTRKLAQKLGVEQPTLYWHVKNKRALLDALAIEMMDRHHTHFCPLEGESWQDFLRNTAKSYRCALLSHRDGAKVCLGTAITEKQYETKENNLAFLCQQGFSLENALYARQAVRVFTLGCVLFDQEMQVAKEERETPTTDSMPPLLRQASELLDHQGAEPAFLFGLELIICGLEKQLKSESGS | 10.4 | 0.2 | 0.3 | 0.1 | 0.2 | 0.1 | 17.2 | 0.0 | 0.3 | 3 | 0.2 | strong sulfometuron activity | – | –
6 | L1-29: SU-responsive TetR(B) variant, library L1 hit, SEQ ID NO: 10 (protein, Sulfonylurea responsive repressor L1-29) MGSRLDKSKVINSALELLNEVGIEGLTTRKLAQKLGVEQPTLYWHVKNKRALLDALAIEMMDRHQTHFCPLEGESWQDFLRNTAKSMRCALLSHRDGAKVWLGTRWTEKQYETPENMLAFLCQQGFSLENALYAWSAVCNFTLGCVLSDQERQVAKEERETPTTDSMPPLLRQAWELSDHQGAEPAFLFGLELIICGLEKQLKCESGS | 20.9 | 15.8 | 1.7 | 13.5 | 0.1 | 0.1 | 2.7 | 0.0 | 0.3 | 9 (weak) | 0.1 | moderate metsulfuron activity | – | –
7 | L1-9: SU-responsive TetR(B) variant, library L1 hit (protein, Sulfonylurea responsive repressor L1-09) MGSRLDKSKVINSALELLNEVGIEGLTTRKLAQKLGVEQPTLYWHVKNKRALLDALAIEMLDRHATHFCPLEGESWQDFLRNNAKSMRCALLSHRDGAKVCLGTGFTEKQYETAENSLAFLCQQGFSLENALYAMQAVCIFTLGCVLLDQELQVAKEERETPTTDSMPPLLRQALELKDHQGAEPAFLFGLELIICGLEKQLKCESGS | 9.8 | 23.6 | 11.8 | 1.2 | 0.3 | 0.4 | 0.6 | 1.1 | 0.4 | 4, 9 (weak) | 0.9 | strong activity on both ethametsulfuron and chlorsulfuron | 14.8 | sensitivity to 2 ppm Es
8 | L1-28: SU-responsive TetR(B) variant, library L1 hit (protein, Sulfonylurea responsive repressor L1-28) MGSRLDKSKVINSALELLNEVGIEGLTTRKLAQKLGVEQPTLYWHVKNKRALLDALAIEMLDRHATHFCPLEGESWQDFLRNNAKSMRCALLSHRDGAKVWLGTAWTEKQYETPENVLAFLCQQGFSLENALYASRAVVTFTLGCVLTDQEKQVAKEERETPTTDSMPPLLRQAWELLDHQGAEPAFLFGLELIICGLEKQLKCESGS | 14.6 | 5.8 | 0.8 | 18.8 | 0.1 | 0.2 | 1.1 | 0.1 | 0.3 | – | – | – | – | –
9 | L1-44: SU-responsive TetR(B) variant, library L1 hit, SEQ ID NO: 13 (protein, Sulfonylurea responsive repressor L1-44) MGSRLDKSKVINSALELLNEVGIEGLTTRKLAQKLGVEQPTLYWHVKNKRALLDALAIEMLDRHATHFCPLEGESWQDFLRNNAKSYRCALLSHRDGAKVYLGTAVTEKQYETAENQLAFLCQQGFSLENALYAVKAVAGFTLGCVLWDQESQVAKEERETPTTASMPPLLRQAVELADHQGAEPAFLFGLELIICGLEKQLKCESGS | 6.7 | 12.0 | 2.4 | 2.9 | 0.4 | 0.3 | 0.4 | 1.9 | 0.4 | 9 (weak) | 0.6 | moderate activity on metsulfuron, ethametsulfuron and chlorsulfuron | – | –
